Results on three substances are retold here after article PMC5574551.

As a reminder, the Kd is the concentration at which binding is half-saturated. A higher Kd goes with a looser complex. As a reminder, the stoichiometry N is a count of units in the complex or per binding partner.

The target in test [1] is taxol-stabilized microtubules (porcine brain tubulin) (porcine) (UniProt P02550). The test is described as follows: single molecule observation (TIRF microscopy); 1 nM GFP-labeled dynactin isoform, mutant or fragment alone on taxol-stabilized microtubules held on glass; SM buffer, 1 mM ATP, 25°C; total residence time in a window of 10 s and 10 μm of microtubule.
Test [2] has the same target. The test is described as follows: single molecule observation (TIRF microscopy); as a2, 1 nM Alexa 647-labeled dynein with 20 nM BICD2 (full length), no dynactin.
Test [3] has the same target. The test is described as follows: single molecule observation (TIRF microscopy); as a2, 1 nM Alexa 647-labeled dynein with 2 nM 1B isoform and 20 nM BICD2 (DDB 1B).
The target is the same in test [4]. In words: single molecule observation (TIRF microscopy); as a2, 1 nM Alexa 647-labeled dynein with 2 nM 1A isoform, no BICD2.
Test [5] has the same target. In words: single molecule observation (TIRF microscopy); as a2, 1 nM Alexa 647-labeled dynein with 2 nM p135 isoform.
Test [6] shares this target. In words: single molecule observation (TIRF microscopy); as a2, 1 nM Alexa 647-labeled dynein with 2 nM 1B isoform, no BICD2.
For test [7] the target is unchanged. In words: single molecule observation (TIRF microscopy); as a2, 1 nM Alexa 647-labeled dynein with 2 nM 1A isoform and 20 nM BICD2 (DDB 1A).
For test [8] the target is unchanged. The test is described as follows: single molecule observation (TIRF microscopy); 1 nM Alexa 647-labeled dynein alone on taxol-stabilized microtubules held on glass by anti-β tubulin antibody; SM buffer (12 mM Pipes-KOH pH 6.8, 25 mM KAce, 1 mM ATP, 2 mM DTT), 25°C; total residence time in a window of 10 s and 10 μm of microtubule.
Test [9] shares this target. The test is described as follows: single molecule observation (TIRF microscopy); as a2, 1 nM Alexa 647-labeled dynein with 2 nM 1BΔCC1 mutant.
Test [10] addresses dynactin complex containing the DCTN1B (1B) isoform (human (cDNA from HEK293 cells) | human (endogenous in HEK293)) (UniProt Q13561). The test is described as follows: pull-down; TALON Dynabeads pull-down of purified proteins; dynein and dynactin mixed in 10 mM Pipes-NaOH pH 7.0, 75 mM NaCl, 45 mM imidazole, 0.01% Tween 20, 10 min at 25°C; bound and unbound fractions on SDS-PAGE, dynein heavy chain band quantified by densitometry.

In test [1], “dynactin complex containing the DCTN1A (1A) isoform (from UniProt Q14203-1 1-1278; Q13561 1-401; P61163 1-376)” gave a fraction not dissociated from microtubules during the observation of 30 s of 72% and a total residence time on microtubules of 60.1 s.

“cytoplasmic dynein (recombinant dynein complex), Q14204 1-4646” yielded a total residence time on microtubules (with BICD2) in [2] of 51.8 s. The same substance registered a total residence time on microtubules (with 1B isoform and BICD2) in test [3] of 19.2 s. In test [4], this substance came in with a fraction not dissociated from microtubules during the observation of 30 s (with 1A isoform) of 79% and a total residence time on microtubules (with 1A isoform) of 53.2 s. In addition, the total residence time on microtubules (with p135 isoform) in test [5] came out at 23.8 s. In test [6], the duration on microtubules, τ (with 1B isoform) worked out at 1.2 s and the total residence time on microtubules (with 1B isoform) is 4.7 s. Further, the total residence time on microtubules (with 1A isoform and BICD2) in [7] amounted to 49.1 s. In test [8], this substance showed a total residence time on microtubules of 64.9 s. The substance also returned a total residence time on microtubules (with 1BΔCC1 mutant) in test [9] of 54 s. In addition, in test [10], the Kd came out at 2.3 nM and the stoichiometry N turned out to be 1.

Regarding “dynactin complex containing the 1BΔCC1 mutant of DCTN1 (from UniProt P61163 1-376)”, in test [1], the total residence time on microtubules is 50 s.
